Measured values reported in US9926375B2, “Anti-endoglin antibodies and uses thereof” (Tracon Pharmaceuticals, Inc., priority 2014, dated 2018).

Experiments:
[1] = molecular target: T1, mouse endoglin (Mus musculus, UniProt Q63961); experiment: Inhibition of mouse BMP binding to mouse endoglin (statement, no method); details: statement in description
T1 sequence (Q63961 27-653): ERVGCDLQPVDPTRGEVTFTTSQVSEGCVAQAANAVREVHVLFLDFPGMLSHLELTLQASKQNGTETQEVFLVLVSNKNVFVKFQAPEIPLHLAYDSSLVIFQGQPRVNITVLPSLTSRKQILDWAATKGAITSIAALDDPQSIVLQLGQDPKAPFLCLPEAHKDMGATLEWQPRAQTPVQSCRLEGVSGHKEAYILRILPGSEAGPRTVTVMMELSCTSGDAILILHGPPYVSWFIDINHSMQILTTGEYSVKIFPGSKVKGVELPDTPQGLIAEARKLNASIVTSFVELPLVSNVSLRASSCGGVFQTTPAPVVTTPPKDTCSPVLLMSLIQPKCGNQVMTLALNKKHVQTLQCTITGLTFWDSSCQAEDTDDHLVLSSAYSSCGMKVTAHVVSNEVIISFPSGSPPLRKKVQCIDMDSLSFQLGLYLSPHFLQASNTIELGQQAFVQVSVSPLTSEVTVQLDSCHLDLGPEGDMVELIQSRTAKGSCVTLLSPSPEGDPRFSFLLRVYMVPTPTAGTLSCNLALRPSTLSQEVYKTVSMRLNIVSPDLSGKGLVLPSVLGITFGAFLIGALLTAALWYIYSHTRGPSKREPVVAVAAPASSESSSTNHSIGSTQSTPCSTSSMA

[2] = system: CCl4-induced liver fibrosis model mice; experiment: Carbon tetrachloride-induced liver fibrosis model; format: in vivo, mouse; details: for Percentage of fibrosis area (Sirius red-positive area), comparison with isotype-matched antibody group: P<0.05, Bonferroni
Experimental: Seven-week-old female C57BL/6J mice (17˜21 g) were obtained from Japan SLC (Japan).
Mice were divided into 3 groups of 8 mice based on their body weight on the day before the start of the treatment (day 13).
Mice were intraperitoneally administered 5% CCl4 (Sigma-Aldrich, USA) in mineral oil (Sigma-Aldrich) in a volume of 100 μL twice a week (day 0, 4, 7, 11, 14, 18, 21 and 25) after acclimation.
To visualize collagen deposition, sections were cut from paraffin blocks of left lateral liver tissue prefixed in Bouin's solution and stained with picro-Sirius red solution (Waldeck, Germany). For quantitative analysis of fibrosis area, bright field images of Sirius red-stained section were randomly captured using a digital camera (DFC280; Leica Microsystems, Germany) at 100-fold magnification, and the Sirius red-stained positive areas in 5 field/section were measured using ImageJ software (National Institute of Health, USA). The quantification was done in a blinded fashion.
Statistical analyses were performed using Bonferroni Multiple comparison test on GraphPad Prism 4 (GraphPad Software, USA). P values<0.05 were considered statistically significant. Results were expressed as mean±SD.
Eight CCl4-induced liver fibrosis model mice were intravenously administered vehicle supplemented with M1043 Antibody at a dose of 10 mg/kg twice weekly at day 14, 17, 21 and 24. All animals were sacrificed on day 28.

[3] = system: BLM-induced pulmonary fibrosis model mice; experiment: Bleomycin-induced pulmonary fibrosis model; format: in vivo, mouse; details: vs isotype-control antibody group (isotype-control vs disease control group); day 21; Bonferroni, P<0.05
Experimental: Pathogen-free 7 weeks old female C57BL/6J mice were obtained from Japan SLC, Inc. (Japan). At day 0, 60 mice were induced to develop pulmonary fibrosis by a single intratracheal administration of bleomycin sulphate (BLM, Nippon Kayaku, Japan) in saline at a dose of 3 mg/kg, in a volume of 50 μL per animal using Microsprayer® (Penn-Century, USA).
BLM-induced pulmonary fibrosis model mice were randomized into 4 groups of 12 mice based on the body weight on the day before the start of treatment.
Group 3 (M1043 Antibody): Twelve BLM-induced pulmonary fibrosis model mice were intravenously administered vehicle supplemented with M1043 at a dose of 10 mg/kg twice weekly at day 7, 10, 14 and 17.
Group 4 (TRC105 human/mouse chimeric antibody): Twelve BLM-induced pulmonary fibrosis model mice were intravenously administered vehicle supplemented with TRC105 at a dose of 10 mg/kg twice weekly at day 7, 10, 14 and 17.
Group 5 (BIBF1120 inhibitor for Idiopathic Pulmonary Fibrosis—positive control, Boehringer Ingelheim): Twelve BLM-induced pulmonary fibrosis model mice were orally administered 1% CMC supplemented with BIBF1120 at a dose of 100 mg/kg once daily from day 7 to 21. […]
Histological analysis of lung sections was conducted by practitioners who are not aware of the Group identity. Masson's Trichrome staining is conducted and an Ashcroft Score estimate was determined. […]

[4] = 10 mg/kg IV twice weekly, day 28, mean ± SD, n = 8
[5] = isotype-matched antibody vs disease control, M1043 Antibody vs isotype-matched antibody

B1: M1043: rat IgG1 antibody that binds mouse endoglin and competitively inhibits mouse BMP binding; VH SEQ ID NO: 124, VL SEQ ID NO: 125 (antibody, V domains shown)
VH: QVQLQQSGAELVKPGSSVKISCKASGYTFTSYDMHWIKQQPGNGLEWIGWIYPGNGNTKYNQKFNGKATLTADKSSSTAYMQLSSLTSEDSAVYFCARGKFGVGDYWGQGVMVTVSS
VL: DTVLTQSPALAVSPGERVSISCRASEGVNSYMHWYQQKPGQQPKLLIYIASNLASGVPARFSGSGSGTDFTLTIDPVEADDTATYFCQQSWNDPYTFGAGTKLELKR
How did the “Effect on mouse BMP binding to mouse endoglin” value [1] turn out when B1 was run?
Its value is “competitively inhibit mouse BMP binding”.

What about the “General condition / abnormal findings” value ([2]; 10 mg/kg IV twice weekly) of the same molecule?
Its value is “no abnormal findings were observed”.

What about the “Body weight on the day of sacrifice” value [2, 4] of the same molecule?
Its value is 20.5 ± 0.7 g.

What about the Liver weight [2, 4] of the same molecule?
Its Liver weight is 896 ± 48 mg.

And the “Sirius red-positive area (fibrosis area)” value [2, 4]?
The value was 2.07 ± 0.52%.

And the “Percentage of fibrosis area (Sirius red-positive area), comparison with isotype-matched antibody group” value ([2]; listed as Antibody M1043)?
Its value is “significant reduction of collagen deposition”.

And the “Percentage of fibrosis area (Sirius red-positive area), comparison with isotype-matched antibody group” value ([2]; listed as M1043 Antibody)?
The value was “significantly decreased”.

What about the “Collagen deposition and bridging fibrosis in Sirius red-stained liver sections” value ([2]; histology, day 28) of the same molecule?
The value was “lower collagen deposition with less frequent formation of bridging fibrosis”.

What about the “Body weight changes, comparison between groups” value [2, 5] of the same molecule?
Its value is “no significant differences”.

What about the “Body weight on the day of sacrifice, comparison between groups” value [2, 5] of the same molecule?
Its value is “no significant differences”.

What about the “Mean liver weight, comparison between groups” value ([2]; isotype-matched antibody vs disease-control, M1043 Antibody vs isotype-matched antibody) of the same molecule?
The value was “no significant difference in mean body weight”.

What about the “Ashcroft score, comparison between groups” value [3] of the same molecule?
The value was “no significant difference”.
